Experimental data: article PMC12084609, “Structural insights into small-molecule agonist recognition and activation of complement receptor C3aR” (The EMBO Journal, 2025)
Residue numbers refer to the chain shown, from its start. Several values for one entry are separate records, joined by “and”; a condition that tells them apart may be missing. Equal entries are not always repeated.

Legend:
C3aR WT = biological target: T1, C3aR WT (Homo sapiens, UniProt Q16581); assay: GloSensor-based cAMP assay, WT C3aR (HEK293T); format: cell-based
T1 construct: expressed in transfected cells; host or cells: HEK293T
T1 sequence (Q16581 1-482): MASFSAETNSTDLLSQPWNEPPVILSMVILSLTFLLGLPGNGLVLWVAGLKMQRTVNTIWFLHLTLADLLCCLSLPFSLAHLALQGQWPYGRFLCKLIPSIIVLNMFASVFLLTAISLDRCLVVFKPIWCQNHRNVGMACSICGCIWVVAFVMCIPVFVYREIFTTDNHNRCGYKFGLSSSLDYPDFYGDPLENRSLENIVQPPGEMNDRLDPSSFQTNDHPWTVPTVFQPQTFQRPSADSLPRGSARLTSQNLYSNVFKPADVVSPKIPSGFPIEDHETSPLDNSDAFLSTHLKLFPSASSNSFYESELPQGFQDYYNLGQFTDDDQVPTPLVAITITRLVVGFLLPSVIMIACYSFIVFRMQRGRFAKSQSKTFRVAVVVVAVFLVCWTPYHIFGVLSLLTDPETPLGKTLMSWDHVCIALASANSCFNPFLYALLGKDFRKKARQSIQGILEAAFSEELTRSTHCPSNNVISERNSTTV
Protocol: (§1) HEK293T cells were seeded on 6-well plates (NEST) and transfected with pGlosensor™-22F plasmids (Promega) and pcDNA3.1 plasmids encoding C3aR or its mutants an with N-terminal FLAG tag. After 48 h, cells were detached with Accutase solution (Sigma-Aldrich) and washed with PBS, and resuspended in assay buffer (CO2-independent medium with 0.5 mg mL^−1D-luciferin). 100,000–200,000 cells were seeded on 96-well white bottom plates (SPL) and incubated at 37 °C for 45 min followed by 45 min incubation at room temperature. After 90 min of incubation, basal luminescence signals were recorded. In total, 25 μl of test ligand with various concentrations and 1 μM Forskolin (Sigma-Aldrich) were treated to the cells and luminescence signals were measured by Tristar 2 LB 942 multimode reader (Berthold). […] Relative luminescence unit (%) was calculated with the signal of wells treated with vehicle as 0% and the signal of wells treated with 1 μM Forskolin as 100% (DiRaddo et al, [2014]). Nonlinear regression was performed using a three-parameter logistic equation.

C3aR I421^7.39A = biological target: T2, C3aR I421^7.39A (Homo sapiens, UniProt Q16581, I421A); assay: GloSensor-based cAMP assay, C3aR mutant I421A; format: cell-based; settings: for cAMP response (% Forskolin): I4217.39A, single replicates
T2 construct: expressed in transfected cells; host or cells: HEK293T
T2 sequence (Q16581 1-482 I421A): T1 sequence (Q16581 1-482) with I421A
Protocol: as §1

C3a: anaphylatoxin C3a, natural peptide ligand of C3aR (a 77-amino acid peptide), Sigma-Aldrich
cAMP response (% Forskolin) (C3aR WT; Log[ligand (M)] -12, individual replicates): 96.64 % Forskolin and 93.74 % Forskolin and 99.06 % Forskolin and 103.59 % Forskolin and 106.40 % Forskolin and 103.79 % Forskolin and 101.64 % Forskolin and 99.02 % Forskolin and 93.95 % Forskolin and 101.82 % Forskolin and 99.95 % Forskolin and 96.51 % Forskolin and 98.16 % Forskolin and 96.67 % Forskolin and 94.02 % Forskolin and 101.30 % Forskolin and 98.69 % Forskolin and 95.26 % Forskolin and 98.94 % Forskolin and 96.13 % Forskolin and 98.01 % Forskolin | pIC50 ± SEM (Mean) (C3aR WT; WT C3aR, 1 μM Forskolin, mean of independent experiments): 8.56 | pIC50 Value (C3aR WT; WT C3aR, Figure EV1B numerical data, curve fit): 8.52 | IC50 (C3aR WT; WT C3aR, decrease in cAMP levels, read-out: IC50): 2.87 nM | pIC50 (Replicate) (C3aR WT; WT C3aR, individual replicates): 8.46 and 8.98 and 8.82 and 8.27 and 8.58 and 8.47 (4×) and 8.89 and 8.95 and 8.48 and 8.53 (2×) and 8.50 and 8.45 and 8.54 and 8.67 and 8.44 | cAMP response (% Forskolin) (C3aR WT; WT, Log[C3a (M)] -7, single replicates): 13.23 % Forskolin and 9.10 % Forskolin and 12.07 % Forskolin and 14.17 % Forskolin and 11.07 % Forskolin and 5.64 % Forskolin and 5.88 % Forskolin and 10.80 % Forskolin and 18.77 % Forskolin and 9.30 % Forskolin and 7.84 % Forskolin and 11.11 % Forskolin and 5.15 % Forskolin and 8.46 % Forskolin and 12.88 % Forskolin and 7.97 % Forskolin and 4.89 % Forskolin and 13.21 % Forskolin and 8.34 % Forskolin and 9.36 % Forskolin and 10.44 % Forskolin | cAMP response (% Forskolin) (C3aR WT; WT, Log[C3a (M)] -8, single replicates): 14.46 % Forskolin and 11.08 % Forskolin and 11.75 % Forskolin and 14.58 % Forskolin and 33.21 % Forskolin and 8.44 % Forskolin and 9.26 % Forskolin and 14.67 % Forskolin and 23.44 % Forskolin and 12.45 % Forskolin and 9.97 % Forskolin and 12.70 % Forskolin and 7.51 % Forskolin and 11.02 % Forskolin and 17.00 % Forskolin and 9.96 % Forskolin and 6.25 % Forskolin and 18.05 % Forskolin and 9.98 % Forskolin and 10.68 % Forskolin and 14.94 % Forskolin | cAMP response (% Forskolin) (C3aR WT; WT, Log[C3a (M)] -9, single replicates): 89.10 % Forskolin and 91.75 % Forskolin and 55.83 % Forskolin and 67.46 % Forskolin and 97.65 % Forskolin and 80.78 % Forskolin and 91.72 % Forskolin and 89.77 % Forskolin and 62.11 % Forskolin and 58.26 % Forskolin and 94.14 % Forskolin and 92.02 % Forskolin and 88.40 % Forskolin and 88.60 % Forskolin and 88.28 % Forskolin and 92.79 % Forskolin and 82.03 % Forskolin and 98.67 % Forskolin and 72.46 % Forskolin and 83.05 % Forskolin and 92.23 % Forskolin | cAMP response (% Forskolin) (C3aR WT; WT, Log[C3a (M)] -10, single replicates): 100.49 % Forskolin and 92.00 % Forskolin and 96.47 % Forskolin and 95.65 % Forskolin and 99.73 % Forskolin and 94.19 % Forskolin and 91.55 % Forskolin and 96.59 % Forskolin and 91.09 % Forskolin and 100.53 % Forskolin and 103.10 % Forskolin and 100.18 % Forskolin and 107.39 % Forskolin and 101.42 % Forskolin and 99.05 % Forskolin and 90.86 % Forskolin and 91.78 % Forskolin and 95.04 % Forskolin and 92.70 % Forskolin and 92.81 % Forskolin and 96.03 % Forskolin | cAMP response (% Forskolin) (C3aR WT; WT, Log[C3a (M)] -11, single replicates): 101.69 % Forskolin and 104.79 % Forskolin and 99.76 % Forskolin and 97.79 % Forskolin and 100.01 % Forskolin and 95.95 % Forskolin and 100.56 % Forskolin and 98.17 % Forskolin and 98.43 % Forskolin and 104.54 % Forskolin and 103.48 % Forskolin and 99.03 % Forskolin and 107.10 % Forskolin and 101.90 % Forskolin and 98.42 % Forskolin and 97.15 % Forskolin and 94.72 % Forskolin and 92.05 % Forskolin and 96.59 % Forskolin and 94.55 % Forskolin and 98.62 % Forskolin | cAMP response (% Forskolin) (C3aR WT; WT, Log[C3a (M)] -12, single replicates): 96.64 % Forskolin and 93.74 % Forskolin and 99.06 % Forskolin and 103.59 % Forskolin and 106.40 % Forskolin and 103.79 % Forskolin and 101.64 % Forskolin and 99.02 % Forskolin and 93.95 % Forskolin and 101.82 % Forskolin and 99.95 % Forskolin and 96.51 % Forskolin and 98.16 % Forskolin and 96.67 % Forskolin and 94.02 % Forskolin and 101.30 % Forskolin and 98.69 % Forskolin and 95.26 % Forskolin and 98.94 % Forskolin and 96.13 % Forskolin and 98.01 % Forskolin | Mean Diff. of pIC50, WT vs. I421A (C3aR I421^7.39A; Dunnett's multiple comparisons test, WT minus mutant): -0.119 | reduction in ligand-induced signaling vs WT (C3aR I421^7.39A; I421^7.39A mutant): minor effect | ΔpIC50 ± SE of Diff. (C3aR I421^7.39A; I421^7.39A relative to WT C3aR): 0.12 ± 0.03 | IC50 (C3aR I421^7.39A; I421^7.39A, dose-response plot, read-out: IC50): 2.54 nM | pIC50 (Replicate) (C3aR I421^7.39A; I421^7.39A, individual replicates): 8.63 and 8.57 and 8.45 and 8.43 and 8.89 and 8.83 | pIC50 ± SEM (Mean) (C3aR I421^7.39A; I421^7.39A, mean of independent experiments): 8.61 | cAMP response (% Forskolin) (C3aR I421^7.39A; Log[C3a (M)] -7): 16.32 % Forskolin and 12.05 % Forskolin and 12.43 % Forskolin and 14.57 % Forskolin and 9.51 % Forskolin and 8.99 % Forskolin and 8.25 % Forskolin | cAMP response (% Forskolin) (C3aR I421^7.39A; Log[C3a (M)] -8): 20.11 % Forskolin and 16.00 % Forskolin and 16.82 % Forskolin and 18.52 % Forskolin and 13.73 % Forskolin and 11.22 % Forskolin and 10.34 % Forskolin | cAMP response (% Forskolin) (C3aR I421^7.39A; Log[C3a (M)] -9): 77.07 % Forskolin and 83.92 % Forskolin and 80.09 % Forskolin and 92.33 % Forskolin and 88.01 % Forskolin and 57.33 % Forskolin and 61.66 % Forskolin | cAMP response (% Forskolin) (C3aR I421^7.39A; Log[C3a (M)] -10): 97.12 % Forskolin and 96.88 % Forskolin and 97.52 % Forskolin and 98.66 % Forskolin and 91.65 % Forskolin and 90.54 % Forskolin and 92.28 % Forskolin | cAMP response (% Forskolin) (C3aR I421^7.39A; Log[C3a (M)] -11): 100.24 % Forskolin and 95.23 % Forskolin and 97.32 % Forskolin and 97.61 % Forskolin and 88.75 % Forskolin and 89.55 % Forskolin and 96.90 % Forskolin | cAMP response (% Forskolin) (C3aR I421^7.39A; Log[C3a (M)] -12): 96.20 % Forskolin and 95.22 % Forskolin and 96.06 % Forskolin and 97.86 % Forskolin and 95.09 % Forskolin and 99.13 % Forskolin and 96.01 % Forskolin
